# Data as given in publication PMC7177239, “Transitional States in Ligand-Dependent Transformation of the Aryl Hydrocarbon Receptor into Its DNA-Binding Form” (International Journal of Molecular Sciences, 2020).
# Where a chain is given by its changes, count along the chain named.
# Experiments:
# [1] = biological target: heat shock protein 90 (rabbit (endogenous in reticulocyte lysate)) (UniProt P30946)
# [2] = biological target: T1, aryl hydrocarbon receptor (AhR), wild type (Mus musculus, UniProt P30561); test: [3H]TCDD saturation binding, hydroxyapatite assay
# T1 construct: wtAhR (mβAhR/pcDNA3), synthesized in vitro in rabbit reticulocyte lysate
# T1 sequence (P30561 10-848): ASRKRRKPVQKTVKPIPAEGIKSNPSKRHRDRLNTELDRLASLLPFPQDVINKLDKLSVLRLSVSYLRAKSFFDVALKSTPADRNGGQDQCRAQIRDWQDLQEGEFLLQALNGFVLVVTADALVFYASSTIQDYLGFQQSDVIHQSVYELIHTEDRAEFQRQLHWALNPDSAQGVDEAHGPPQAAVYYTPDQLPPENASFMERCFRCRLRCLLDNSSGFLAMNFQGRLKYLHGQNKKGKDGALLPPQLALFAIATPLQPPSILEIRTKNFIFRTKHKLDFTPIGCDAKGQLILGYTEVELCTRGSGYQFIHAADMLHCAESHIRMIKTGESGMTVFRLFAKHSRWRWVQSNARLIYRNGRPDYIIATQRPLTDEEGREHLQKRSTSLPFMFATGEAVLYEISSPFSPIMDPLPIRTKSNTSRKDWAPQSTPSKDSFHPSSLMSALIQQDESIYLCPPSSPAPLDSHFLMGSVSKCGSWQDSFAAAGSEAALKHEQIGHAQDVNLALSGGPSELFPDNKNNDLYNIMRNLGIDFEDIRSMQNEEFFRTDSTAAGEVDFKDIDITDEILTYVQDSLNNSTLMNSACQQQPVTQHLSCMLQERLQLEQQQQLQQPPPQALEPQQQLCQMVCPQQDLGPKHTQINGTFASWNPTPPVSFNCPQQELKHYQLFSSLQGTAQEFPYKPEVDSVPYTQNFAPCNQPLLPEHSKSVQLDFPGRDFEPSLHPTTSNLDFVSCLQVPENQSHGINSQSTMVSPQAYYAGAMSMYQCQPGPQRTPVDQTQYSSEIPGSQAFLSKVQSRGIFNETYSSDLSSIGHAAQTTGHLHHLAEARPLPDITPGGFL
# [3] = biological target: T2, aryl hydrocarbon receptor (AhR) (Mus musculus, UniProt P30561, D371A); test: [3H]TCDD saturation binding, hydroxyapatite assay
# T2 construct: mutant of mβAhR/pcDNA3, synthesized in vitro in rabbit reticulocyte lysate
# T2 sequence (P30561 10-848 D371A): T1 sequence (P30561 10-848) with D362A
# [4] = tested on: AhRdPASB;ARNT; test: EMSA; settings: MEDG (25 mM MOPS pH 7.5, 1 mM EDTA, 1 mM DTT, 10% glycerol), 150 mM KCl (no added KCl for AhRdPASB and AhR/PASB-ARNT), AhR:ARNT:buffer 1:1:8, 10 nM TCDD or 1% …
# [5] = tested on: AhR R217A;ARNT; test: EMSA; settings: MEDG (25 mM MOPS pH 7.5, 1 mM EDTA, 1 mM DTT, 10% glycerol), 150 mM KCl (no added KCl for AhRdPASB and AhR/PASB-ARNT), AhR:ARNT:buffer 1:1:8, 10 nM TCDD or 1% …
# [6] = tested on: AhR F281A;ARNT; test: EMSA; settings: MEDG (25 mM MOPS pH 7.5, 1 mM EDTA, 1 mM DTT, 10% glycerol), 150 mM KCl (no added KCl for AhRdPASB and AhR/PASB-ARNT), AhR:ARNT:buffer 1:1:8, 10 nM TCDD or 1% …
# [7] = tested on: AhR/PASB-ARNT;ARNT; test: EMSA; settings: MEDG (25 mM MOPS pH 7.5, 1 mM EDTA, 1 mM DTT, 10% glycerol), 150 mM KCl (no added KCl for AhRdPASB and AhR/PASB-ARNT), AhR:ARNT:buffer 1:1:8, 10 nM TCDD or 1% …
# [8] = tested on: wtAhR;ARNT; test: EMSA; settings: MEDG (25 mM MOPS pH 7.5, 1 mM EDTA, 1 mM DTT, 10% glycerol), 150 mM KCl (no added KCl for AhRdPASB and AhR/PASB-ARNT), AhR:ARNT:buffer 1:1:8, 10 nM TCDD or 1% …
# [9] = tested on: AhR A375V;ARNT; test: EMSA; settings: MEDG (25 mM MOPS pH 7.5, 1 mM EDTA, 1 mM DTT, 10% glycerol), 150 mM KCl (no added KCl for AhRdPASB and AhR/PASB-ARNT), AhR:ARNT:buffer 1:1:8, 10 nM TCDD or 1% …
# [10] = tested on: AhR D371A;ARNT; test: EMSA; settings: MEDG (25 mM MOPS pH 7.5, 1 mM EDTA, 1 mM DTT, 10% glycerol), 150 mM KCl (no added KCl for AhRdPASB and AhR/PASB-ARNT), AhR:ARNT:buffer 1:1:8, 10 nM TCDD or 1% …
# wild type aryl hydrocarbon receptor (mouse), sequence (P30561 whole entry): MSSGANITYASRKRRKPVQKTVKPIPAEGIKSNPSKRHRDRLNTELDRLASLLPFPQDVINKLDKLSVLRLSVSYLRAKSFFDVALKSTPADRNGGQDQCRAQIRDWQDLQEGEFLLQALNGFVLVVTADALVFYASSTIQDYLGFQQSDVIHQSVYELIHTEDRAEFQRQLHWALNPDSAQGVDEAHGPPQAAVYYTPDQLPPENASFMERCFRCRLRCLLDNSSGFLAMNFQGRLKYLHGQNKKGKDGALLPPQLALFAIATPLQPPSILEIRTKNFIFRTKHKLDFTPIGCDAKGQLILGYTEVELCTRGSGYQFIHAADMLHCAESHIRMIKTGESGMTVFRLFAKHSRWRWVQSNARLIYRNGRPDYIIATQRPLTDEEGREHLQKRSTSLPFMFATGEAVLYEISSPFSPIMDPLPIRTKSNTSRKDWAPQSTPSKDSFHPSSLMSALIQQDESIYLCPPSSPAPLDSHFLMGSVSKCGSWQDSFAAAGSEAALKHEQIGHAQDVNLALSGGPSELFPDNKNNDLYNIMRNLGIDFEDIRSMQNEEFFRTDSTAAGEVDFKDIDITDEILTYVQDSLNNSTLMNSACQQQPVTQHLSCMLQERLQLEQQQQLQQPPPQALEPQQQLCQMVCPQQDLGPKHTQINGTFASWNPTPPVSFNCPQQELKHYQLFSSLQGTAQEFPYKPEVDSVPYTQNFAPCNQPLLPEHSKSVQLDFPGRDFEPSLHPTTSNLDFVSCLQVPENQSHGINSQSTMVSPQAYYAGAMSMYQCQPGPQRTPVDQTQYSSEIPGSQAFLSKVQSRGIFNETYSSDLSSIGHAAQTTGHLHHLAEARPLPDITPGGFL
# AhRdPASB, sequence (P30561 whole entry): as above
compound,measurement,setting,value
AhR F281A (from UniProt P30561 1-848) (natural protein),percent inhibition by 20 mM sodium molybdate of constitutive AhR transformation/DNA binding in vitro (gel retardation),[1],5%
AhRdPASB (from UniProt P30561 1-848) (natural protein),percent inhibition by sodium molybdate of constitutive AhR transformation/DNA binding in vitro (gel retardation),[1],4.3%
AhR/PASB-ARNT,percent inhibition by sodium molybdate of constitutive AhR transformation/DNA binding in vitro (gel retardation),[1],9.1%
"Clc1cc2c(cc1Cl)Oc1cc(Cl)c(Cl)cc1O2 [TCDD, 2,3,7,8-tetrachlorodibenzo-p-dioxin]",Kd,[2],4.6 ± 0.3 nM
same,Kd,[3],5 ± 0.4 nM
DRE3,binding signal (% inhibition by molybdate),[4],4.3
same,binding signal (% inhibition by molybdate),[5],67.1
same,binding signal (% inhibition by molybdate),[6],5
same,binding signal (% inhibition by molybdate),[7],9.1
same,binding signal (% DNA binding (reference)),[8],100
same,binding signal (% inhibition by molybdate),[8],69.6
same,binding signal (% of wt DNA binding),[9],55
same,binding signal (% inhibition by molybdate),[10],61.7
wild type aryl hydrocarbon receptor (mouse) (from UniProt P30561 1-848) (natural protein),percent inhibition by sodium molybdate (up to 20 mM) of TCDD-dependent AhR transformation/DNA binding in vitro (gel retardation),[1],69.6%
